This is an account of results in patent US20230242902A1, “A HIGHLY ERROR-PRONE […] R[…] FOR TARGETED CONTINUOUS EVOLUTION IN VIVO” (The Regents of the University of California, priority 2017, published 2023).

Numbering of substitutions follows the chain as printed. Names and notes keep the numbering of the source.

One experiment has as its system p2-encoded leu2*. Briefly: p2 leu2* fluctuation tests in GA-Y021 (p2 mutation rate reporter strain). It counts as cell-based, S. cerevisiae. Particulars: for fold increase of p2 mutation rate: GA-Y021, mutual orthogonality experiment, 48 replicates; for Per-base substitution rate pf p2: TP-DNAP2 variant in trans, wt TP-DNAP2 in cis, (95% C.I.); for Per-base substitution rate pf p2 / fold increase of p2 substitution mutation rate: 36 replicates; for Fold increase: p2 substitution rate over no variant in trans; for fold increase of p2 substitution mutation rate: reconfirmation; for change in p2 mutation rate by TP-DNAP1: GA-Y021, noncognate polymerase in trans, mutual orthogonality experiment. An outline of the steps:
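Yeast GA-Y021 carrying wt TP-DNAP2 plus variants in trans; replicate cultures grown 48 h at 30° C in pH 5.8 SC dropout, spot-plated on leucine-free medium, colonies counted after 5 days. m by p0 method (six replicates) or Ma-Sandri-Sarkar MLE (36–48 replicates), normalized to titer, p2 copy number (mKate2) and 2.33 bp target.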

A further experiment relates to p1-encoded leu2*. Briefly: p1 leu2* fluctuation tests in AR-Y304 (p1 mutation rate reporter strain, mutual orthogonality). It is filed as cell-based, S. cerevisiae. Particulars: for change in p1 mutation rate by TP-DNAP2: AR-Y304, noncognate polymerase in trans. An excerpt: Strains for testing mutual orthogonality were generated by transforming a panel of CEN6/ARS4 vectors encoding TP-DNAP1 or TP-DNAP2 variants into two base strains, AR-Y304 and GA-Y021. AR-Y304 (Ravikumar et al., 2014, Nature Chemical Biology, 10:175-177) contains recombinant p1 encoding mKate2, URA3 and leu2* without disturbing the native TP-DNAP1 ORF. Similarly, GA-Y021 encodes recombinant p2 that replaces ORF1 with mKate2, URA3 and leu2* without disturbing the native TP-DNAP2 ORF.
To precisely measure p1 and p2 per-base substitution mutation rates, several modifications were made to the small-scale protocol. First, 36 replicates were performed for reconfirmation of candidate TP-DNAP2 mutators, and 48 replicates for genomic and mutual orthogonality experiments. Titers were also determined for each strain after spot plating by pooling the residual volume from 4 replicates and plating dilutions on YPD. The expected number of LEU2 functional mutants (m) was determined by the Ma-Sandri-Sarkar maximum likelihood estimator (as calculated by the FALCOR tool and corrected for partial plating (Foster, 2006, Methods Enzymol, 409:195-213; Sarkar et al., 1992, Genetica, 85:173-179; Hall et al., 2009, Bioinformatics, 25:1564-1565). The mean mKate2 fluorescence was determined from 50,000 event counts on Attune™ NxT Flow Cytometer and converted to p2 copy number by using a calibration curve. To determine per-base substitution rates, the corrected m was normalized to the average cell titer, the p2 copy number, and the target size for functional leu2* reversion (2.33 bp). 95% confidence intervals were similarly scaled.
To test whether the replication mechanisms of p1 and p2 are mutually orthogonal in vivo, p1 and p2 mutation rates were measured in the presence of a panel of TP-DNAP1 and TP-DNAP2 variants with varying mutation rates. Changes in p1 or p2 mutation rate induced by TP-DNAP variants would therefore signal a degree of cross-replication between TP-DNAP1/p1 and TP-DNAP2/p2, if any. A panel of six polymerases was introduced on CEN6/ARS4 vectors into two separate base strains, AR-Y304 (p1 mutation rate reporter strain) and GA-Y021 (p2 mutation rate reporter strain), encoding mKate2, URA3, and leu2* on either p1 or p2, respectively. Included in this panel were TP-DNAP1^WT and two error-prone TP-DNAP1 variants found in previous screens: TP-DNAP1^1777K, L900S and TP-DNAP1^L477V, L640Y, I777K, W814N. Also included were TP-DNAP2^WT and the error-prone TP-DNAP2^S370Q and TP-DNAP2^Y424Q variants found in this work. In AR-Y304 and GA-Y021, both p1 and p2 still encode their native wt TP-DNAP's. Any contribution to replication by a third TP-DNAP encoded in trans is monitored by detecting changes in linear plasmid mutation rate. Importantly, these experiments afford each DNAP an opportunity to replicate its native plasmid and lose its attached TP, becoming “spent” and perhaps more likely to replicate its noncognate linear plasmid through DNAP exchange (Klassen and Meinhardt, 2007, Linear Protein-Primed Replicating Plasmids in Eukaryotic Microbes, in Microbial Linear Plasmids, pp 1 87-226. Springer, Berlin, Heidelberg). The presence of TP-DNAP1^WT or TP-DNAP2^WT in trans had no effect on their noncognate linear plasmids' mutation rate. […] Likewise, p1 mutation rate was unaltered in the presence of mutagenic TP-DNAP2^S370Q and TP-DNAP2^Y424Q, which increased p2 mutation rate by 29- and 16-fold, respectively (FIG. 9). Thus, TP-DNAP1 replicates p1 with at least 870-fold specificity over p2, while TP-DNAP2 targets p2 with at least 29-fold specificity over p1. The level of mutual orthogonality measured here is limited by the error-rates of DNAPs used, especially that of TP-DNAP2 variants.

B1: WT: wild-type Kluyveromyces lactis DNA polymerase TP-DNAP2, SEQ ID NO:13 (protein, listed as Kluyveromyces lactis)
chain: MNDELAFLNSQIDDYSDDIEFLRTEVFRINRYSKSIYSLMKNSSKEAIKETIEFNKYGQEIHSKIKEKEISLIEAIKLMEKKYKYLRSLNKTKDKSKKKKIHTKDIETLKTIYKTKADFDIRNFKNAETFTYENYSLLIPSEKELIDLIPEIEEDYSYYFYVSLTITGPTIFGGVTRKVPIIDTYGDINKDFYNKIKENITKVLDRVPFYEEKESEIICKKVLITLTVNKWESIDKWYKNVKSKSKKFKDFTLFLASDTSKNCVQQCVEYLGGKWNTNYSLEKMIPQQKIVTYIPLLMDIQYVQSMEDLISDFDEPNTDCKNIARLLKWNGHMGVITKIDKDVKINRIQRKRIIDVENKEVKEVFFDIESFSDETKHQIPYLICWSYLGELYYRTGKNCIKEFVEEILSYNVDIILYAWYGSGYDYQHVLPYMKSKCIKDKYIIKNNMITYGELYYENAIIYLKDPYLFILTSLDKASKAFNVINKGEFPHSIIHSWEDLNKILPNWVKIQKRMIEYKDDNKLNIYYKNIEIFENDRNYNTILENAIEYCKVDVLAMEKVWIKFKKLLEKNLNITVSVKTFTLSQLSMKIMESKLPKYVKLYVPTLEEYSKIRNAIYGGRVISKNGIYEENIVYADVVSLYPSAMKLLKHSYGKPKLVDYIDFEKHGIYRVTLLNKHDQEPKNYLNFVPRRINRKLTWEWFKIHEGWYHTYDLIIAKSEGFDIYCHEGFEYPEKDYIFNDFIDTLYSMKETHTACSCEEQPCPIRMVAKIALNGGGYGKFVQKPIDKEIYIVKRDVVAGECDKLQENENGEICIGKRLVKRPLFYNLDSENYDKMIIEKEDEPIYSTQCGISILSASRYRLYKLCKQFENIDIIYSDTDSIFVKQKSVDWELFKSKCGSELGQLDSTIDDTKNAIISKMYIGGAKMYAFEYLNNKNKLITKLHCKGVPNYMLSLNQFKYLMESPDNTIAYKFEIIRRKLVNVITKDLIKDIKQT
Take B1: the “specificity for p2 over p1” value in the experiment on p2-encoded leu2* was “at least 29 fold”. Also, in the experiment on p2-encoded leu2* (GA-Y021, wt TP-DNAP2 encoded on p2), the “mutation rate of p2-delORF1-mUL* replication” value was 5.96×10^−10 s.p.b. In addition, in the experiment on p1-encoded leu2*, the “change in p1 mutation rate by TP-DNAP2” value is “no effect”.

B2: S370Q: TP-DNAP2 variant (protein, listed as Kluyveromyces lactis)
chain: B1 chain with S370Q
As to B2, in the experiment on p2-encoded leu2*, the “fold increase of p2 mutation rate” value is given as 29 fold, the “Per-base substitution rate pf p2” value was 83.0 (62.8-105) ×10^−10, the Fold increase is given as 13.9 and the “fold increase of p2 substitution mutation rate” value is roughly 14 fold. Further, the “change in p1 mutation rate by TP-DNAP2” value with p1-encoded leu2* is reported as “unaltered”.

B3: Y424Q: TP-DNAP2 variant (protein, listed as Kluyveromyces lactis)
chain: B1 chain with Y424Q
As to B3, in the experiment on p2-encoded leu2*, the “fold increase of p2 mutation rate” value amounted to 16 fold, the “Per-base substitution rate pf p2” value is on record as 77.5 (56.9-100) ×10^−10, the Fold increase is 13.0 and the “fold increase of p2 substitution mutation rate” value was roughly 13 fold. For the same molecule, the “change in p1 mutation rate by TP-DNAP2” value in the experiment on p1-encoded leu2* is recorded as “unaltered”.

B4: TP-DNAP1-4-2: TP-DNAP1 variant (L477V, L640Y, I777K, W814N), encoded by SEQ ID NO:11 (protein, listed as Kluyveromyces lactis)
chain: MDYKDKALNDLRNVYADFDSLPLDFRQILIKDRATLLQKEDVEKKILERQEDAKKYAEYLKQSEIPERISLPNIKRHKGVSISFEETSEDMVLEPRPFIFDGLNIRCFRRETIFSLKNKILNMVKESSSFKNVSRQSVSFMYFKIFNKGKVIASTKSVNIYEDKIDERLEDLCNNFDDVLKKIIDVTYGYESLFVSETYSYVIFYAKSIYFPQPRCVNNWGNNIPNILTFDSFKLFTANKNNVSCIKQCSRFLWQKDFNTLEEMIEYKNGNICIVTPQLHINDVRDIKSFNDIRLYSESPIKTFSVIDNTITYLFYFKEHLGVIFNITKSRHDRRVTKFSPLSKFSDVKNITVCFDIESYFDPEKESNQVNIPFICCASIIYNKVIGNIVDFEGRDCVAQMIEYVVDICGELNISSVELIAHNGGGYDFHYILSSMYNPAAIKNILIRNNSFISFNFAHDGVKFSVKDSYSFLLCSVANASKAFLNEETFKKTDFPHHDLKTADDLYKVYKEWSSVNTEINHVVEKEKLLITSEHIVNFTKNDKSKTLIEWSKDYCRNDVLVLSKVWLEFKNAVEDIFNCELVDQTMTLAGLSYKLFQANMPFDVELRHPNKEDYFNMREALIGGRCISVNGIYKDVLCYDVKSLYPASMAFYDQPYGSFKRVSSRPKDELGIYYVRVTPNRNNKSNFFPIRSHNKITYNNFEESTYIAWYTNVDIDIGLSEGHNIEYIPFDSYGNIGYSWSKKGKIFEKYIKDVLYKLKIKYEKQNNKVKRNVIKKIMNSLWGKFAQKWVNFEYFIKSEDDIDFESEEAYKINDTDFMLIKKIKESTYSSKPIQNGVFTLSWARYHMKSIWDAGAKEGAECIYSDTDSIFVHKEHFKKNAKFMLNGLKVPIIGSEVGQLELECEFDKLLCAGKKQYMGFYTYFQDGKPCIKEKKRFKGIPSNYIIPELYAHLLSGADKEAKIQFLKFRREWGSVKGYIENKTVKAT
As to B4, the “change in p2 mutation rate by TP-DNAP1” value in the experiment with p2-encoded leu2* is given as “no statistically significant change”. Also, in the experiment with p1-encoded leu2* (AR-Y304, polymerase in trans), the “fold increase of p1 mutation rate” value worked out at 870 fold.

B5: w.t.: wild-type Kluyveromyces lactis DNA polymerase TP-DNAP1, SEQ ID NO:1 (protein, listed as Kluyveromyces lactis)
chain: B4 chain with V477L, Y640L, K777I, N814W
For B5, the “change in p2 mutation rate by TP-DNAP1” value with p2-encoded leu2* is on record as “no effect”. The “specificity for p1 over p2” value in the experiment with p1-encoded leu2* was “at least 870 fold”.
